The record followed here is patent US20180030149A1 (AVEO PHARMACEUTICALS, published 2018).

Experiment [1] addresses T1, recombinant human ErbB3 monomeric protein (cleaved rhErbB3) (human, UniProt P21860 20-643, limits assumed).
T1 construct: Monomer made by protease cleavage of the Fc fusion; also called Monomeric ErbB3
The experiment can be described thus: SPR Biacore 37 C; purified antibody captured on anti-human Fc, cleaved rhErbB3 0.3125-5.0 nM. The procedure:
The analyses were performed at 37° C. using PBS (Invitrogen, Catalog No. 14040-133) containing 0.05% surfactant P20 (Biacore, Catalog No. BR-1000-54) as running buffer.
The antibodies were captured in individual flow cells at a flow rate of […]. Injection time was varied for each antibody to yield an Rₘₐₓ between 30 and 60 RU. […] The dissociation phase was monitored for up to 1200 seconds. The surface was then regenerated with two 60 second injections of Glycine pH 2.25 (made from Glycine pH 2.0 (Biacore, Catalog No. BR-1003-55) and pH 2.5 (Biacore, Catalog No. BR-1003-56)) at […].
The binding affinities and kinetics of certain purified monoclonal antibodies were also determined. To further characterize certain antibodies, the surface plasmon resonance experiments described above were conducted using concentrations of cleaved rhErbB3 between 0.3125 nM and 5.0 nM (a 2-fold serial dilution).
Background: SPR reads the build-up and loss of mass on a sensor chip optically.

Experiment [2] addresses T2, recombinant human ErbB3/Fc fusion protein (human, UniProt P21860 20-643).
T2 construct: Bought (R&D Systems, Cat. No. 348-RB); the NRG1-α1 assay names Cat. No. 4518-RB instead; also called rhErbB3-Fc; rhErbB3/Fc; not shown: Fc portion of the bought fusion protein
The experiment can be described thus: ECL (MSD) competition: rhErbB3/Fc coated on the plate, antibody dilutions, then NRG1-β1 at 0.25 µg/ml; bound NRG1-β1 detected. As to the method: (§1) Multi-array 96-well standard binding plates (Meso Scale Discovery, Cat. No. L15XA-3) were coated with 50 μl of 0.5 μg/mL rhErbB3/Fc (R&D systems, Cat. No. 348-RB) in PBS (Invitrogen, Cat. No. 14040-133) for one hour at room temperature with no agitation. The plates then were washed three times with PBS+0.1% Tween20 (Sigma P5927) and blocked with 200 μl of 100% Horse Serum, heat inactivated (GIBCO, Cat. No. 26050-088) for 1.5 hours at room temperature. After washing the plates three times with PBS+0.1% Tween, 25 μl of the antibody dilutions were added to the plates for another hour at room temperature with agitation. […] The plates then were washed three times with PBS+0.1% Tween, and 150 μl of 1× read buffer (Meso Scale Discovery, Cat. No. R92TC-1) was added to each well before the plates were analyzed on a Sector® Imager 2400 (Meso Scale Discovery) instrument.

For experiment [3], the target named is T3, human ErbB3 (human, UniProt P21860 20-1342). The experiment can be described thus: cell-based or functional assay.
Experiment [4] has as its target T2, recombinant human ErbB3/Fc fusion …. Description: ECL competition; inhibition of NRG1-β1 binding to plate-coated rhErbB3/Fc. As to the method: as §1
For experiment [5], the target named is T1, recombinant human ErbB3 monomeric …. The experiment can be described thus: SPR Biacore 37 C; antibody captured on anti-human Fc, cleaved rhErbB3 (monomer) injected.
The target of experiment [6] is T2, recombinant human ErbB3/Fc fusion …. The experiment can be described thus: SPR Biacore T100, 25 C; antibody captured on anti-mouse IgG, rhErbB3-Fc injected. The procedure: Rabbit anti-mouse IgGs (Biacore, Cat. No. BR-1008-38) were immobilized on carboxymethylated dextran CM4 sensor chips (Biacore, Cat. No. BR-1005-34) by amine coupling (BIAcore, Cat. No. BR-1000-50) using a standard coupling protocol according to vendor's instructions. The analyses were performed at 25° C., using PBS (Invitrogen, Cat. No. 14040-133) containing 0.05% surfactant P20 (Biacore, Cat. No. BR-1000-54) as running buffer.
The antibodies were captured in individual flow cells at a flow rate of 10 μl/minute. Injection time was varied for each antibody to yield an Rₘₐₓ between 30 and 60 RU. […] The dissociation phase was monitored for up to 3600 seconds. The surface was then regenerated with two 60-seconds injection of 10 mM Glycine-HCl, pH 1.7 (made from Glycine pH 1.5 (Biacore, Cat. No. BR-1003-54) and pH 2.0 (Biacore, Cat. No. BR-1003-55)) at a flow rate of […].
Kinetic parameters were determined using the kinetic function of the BIAevaluation software (Biacore) with double reference subtraction. Kinetic parameters for each antibody, kₐ (association rate constant), kd (dissociation rate constant) and KD (equilibrium dissociation constant) were determined.

The target is the same in experiment [7]. Description: ECL (MSD): NRG1-β1 (0.25 µg/ml) binding to plate-coated rhErbB3/Fc after antibody dilutions; the antibody enhances the NRG1-β1 signal. The procedure: MA2400 96-well standard binding plates (Meso Scale Discovery, Cat. No. L15XA-6) were coated with 50 μl of 0.5 μg/mL rhErbB3/Fc (R&D systems, Cat. No. 348-RB) in PBS (Invitrogen, Cat. No. 14040-133) for overnight at 4° C. with no agitation. The plates then were washed 3 times with PBS+0.1% Tween20 (Sigma P5927) and blocked with 200 μl of PBS containing 5% BSA (Sera Care Life Sciences, Cat. No. AP-4510-80) for 1.5 hour at room temperature. After washing the plates 3 times with PBS, 25 μl of the antibody dilutions were added to the plates for another hour at room temperature with agitation. […] The plates then were washed 3 times with PBS, and 150 μl of 1× read buffer (Meso Scale Discovery, Cat. No. R92TC-1) was added to each well before the plates were analyzed on a Sector® Imager 2400 (Meso Scale Discovery) instrument.

Experiment [8] deals with T3, human ErbB3. Description: cell-based or functional assay. This is another data set of the same source.
Experiment [9] deals with T2, recombinant human ErbB3/Fc fusion …. The experiment can be described thus: ECL (MSD) competition: rhErbB3/Fc coated on the plate, antibody dilutions, then NRG1-β1 at 0.25 µg/ml; bound NRG1-β1 detected. This is another data set of the same source.

Residue numbers refer to the chain shown, from its start. Numbers in names are those of the source. Where two headings read alike, the source gives them in different places.

B1: Sh24C05-25 N62S IgG1 (antibody)
heavy: not shown
light: DIQMTQSPSSLSASVGDRVTITCRASQEISGYLSWFQQKPGKAPKSLIYAASTLDSGVPSRFSGSGSGTDFTLTISSLQPEDFATYYCLQYDSYPYTFGQGTKLEIKRTVAAPSVFIFPPSDEQLKSGTASVVCLLNNFYPREAKVQWKVDNALQSGNSQESVTEQDSKDSTYSLSSTLTLSKADYEKHKVYACEVTHQGLSSPVTKSFNRGEC
notes: Humanized, human IgG1/kappa
Take B1: in experiment [1], the Kd turned out to be 160 pM, the koff was determined as 0.00045 s⁻¹ and the kon was 2.9e+06 M⁻¹ s⁻¹. Also, in experiment [2], the “IC50 (read off the curve)” value is about 100 pM. Further, in the experiment with human ErbB3 [3], the “inhibition of phosphorylation of ErbB3 in exponentially growing SKBR-3 cells (ELISA)” value (from here on “inhibition of phosphorylation of ErbB3”) is at least 50%. The IC50 in experiment [4] was 122 pM.

B2: Sh24C05-25 N62S IgG2 (antibody)
heavy: QVQLVESGGGLVKPGGSLRLSCAASGFTFSDYAMSWIRQAPGKGLEWVSTISDGGTYTYYPDSVKGRFTISRDNAKNSLYLQMNSLRAEDTAVYYCAREWGDYDGFDYWGQGTLVTVSSASTKGPSVFPLAPCSRSTSESTAALGCLVKDYFPEPVTVSWNSGALTSGVHTFPAVLQSSGLYSLSSVVTVPSSNFGTQTYTCNVDHKPSNTKVDKTVERKCCVECPPCPAPPVAGPSVFLFPPKPKDTLMISRTPEVTCVVVDVSHEDPEVQFNWYVDGVEVHNAKTKPREEQFNSTFRVVSVLTVVHQDWLNGKEYKCKVSNKGLPAPIEKTISKTKGQPREPQVYTLPPSREEMTKNQVSLTCLVKGFYPSDIAVEWESNGQPENNYKTTPPMLDSDGSFFLYSKLTVDKSRWQQGNVFSCSVMHEALHNHYTQKSLSLSPGK
light: B1 light
notes: Humanized, human IgG2/kappa
For the molecule B2, in [1], the Kd came out at 120 pM, the koff is 0.00034 s⁻¹ and the kon was determined as 2.7e+06 M⁻¹ s⁻¹. For the same molecule, the “IC50 (read off the curve)” value in experiment [2] is about 100 pM. Further, in the experiment with human ErbB3 [3], the “inhibition of phosphorylation of ErbB3” value is at least 50%. In addition, in [4], the IC50 turned out to be 112 pM.

B3: Sh24C05-31 N62S IgG1 (antibody)
heavy: not shown
light: B1 light with F36Y, S46R, D70E
notes: Humanized, human IgG1/kappa
On to B3, for which, in experiment [1], the Kd is 76 pM, the koff worked out at 0.00027 s⁻¹ and the kon turned out to be 3.5e+06 M⁻¹ s⁻¹. Moreover, in [5], the Kd worked out at 76 pM, the koff turned out to be 0.00027 s⁻¹ and the kon was 3.5e+06 M⁻¹ s⁻¹. In experiment [2], the “IC50 (read off the curve)” value was about 100 pM. Moreover, in the experiment with human ErbB3 [3], the “inhibition of phosphorylation of ErbB3” value is at least 50%. Also, the IC50 in experiment [4] worked out at 124 pM.

B4: Sh24C05-31 N62S IgG2 (antibody)
heavy: B2 heavy
light: B1 light with F36Y, S46R, D70E
notes: Humanized, human IgG2/kappa
For the molecule B4, in experiment [1], the Kd is 74 pM, the koff was determined as 0.00024 s⁻¹ and the kon amounted to 3.2e+06 M⁻¹ s⁻¹. Moreover, the “IC50 (read off the curve)” value in [2] is about 100 pM. Moreover, the “inhibition of phosphorylation of ErbB3” value in the experiment with human ErbB3 [3] was at least 50%. In addition, in experiment [4], the IC50 worked out at 86 pM.

B5: 09D03 (antibody, mouse IgG2b, kappa, V domains shown)
VH: QVTLKESGPGILRPSQTLSLTCSFSGFSLSTFGLSVGWIRQPSGKGLEWLAHIWWDDDKYYNPALKSRLTISKDTSKNQVFLKIANVDTADTATYYCARIGADALPFDYWGQGTTLTVSS
VL: DIVLTQTAPSVPVTPGESVSISCRSSKSLLHSNGNTYLYWFLQRPGQSPQLLIYRMSNLASGVPDRFSGSGSGTAFTLRISRVEAEDVGVYYCMQHLEYPFTFGSGTKLEIKR
notes: Murine IgG2b/kappa, from hybridoma; also called anti-hErbB3 monoclonal antibody 09D03
Turning to B5, in the experiment with human ErbB3 [3], the “inhibition of NRG1-β1 induced phosphorylation of Akt in MCF7 and DU145 cells (ELISA)” value is at least 80%; the “inhibition of NRG1-β1 induced phosphorylation of ErbB3 in SKBR-3 cells (ELISA, 5 µg/ml antibody)” value is at least 50%. Moreover, in experiment [6], the Kd worked out at 80 pM, the koff was determined as 2e-05 s⁻¹ and the kon came to 270000 M⁻¹ s⁻¹. The “EC50 (read off the curve)” value in experiment [7] is about 1000 pM. Besides, in the experiment with human ErbB3 [8], the “IC50, NRG1-β1 dependent proliferation of MCF7 cells (MTT)” value came to 2280 pM.

B6: U1-53 (antibody, V domains shown)
VH: EVQLVESGGGLVQPGGSLRLSCAASGFTFSIYSMNWVRQAPGKGLEWVSYISSSSSTIYYADSVKGRFTISRDNAKNSLYLQMNSLRDEDTAVYYCARDRGDFDAFDIWGQGTMVTVSS
VL: DIQMTQSPSSLSASVGDRVTITCQASQDITNYLNWYQQKPGKAPKLLIYDASNLETGVPSRFSGSGSGTDFTFTISSLQPEDIATYNCQQCENFPITFGQGTRLEIK
Regarding B6, the “IC50 (read off the curve)” value in experiment [9] is about 100 pM. The IC50 in experiment [4] was 113 pM.

For orientation: Kd means the free concentration of one partner at which half of the binding sites on the other are occupied at equilibrium, for simple one-to-one binding. In general, koff refers to the first-order rate constant of dissociation. Usually kon stands for a measure of how fast the partners come together. Broadly, the IC50 is the concentration that inhibits the measured activity by half. Usually EC50 (read off the curve) stands for the concentration at which the effect is half-maximal.
